Laboratory results reported in paper PMC10716131 (2023).
One block for each binder: values may come before it.

Tests used:
[1] = molecular target: T1, DDB1:CRBN complex, full-length human CRBN (residues 1–442) with N-terminal biotinylated Avi-tag, co-expressed … (human, UniProt Q96SW2 1-442; Q16531 1-1140, biotin on the Avi-tag (BirA, 100% efficiency)); assay: SPR; pomalidomide 5 uM
[2] = molecular target: T1, DDB1:CRBN complex, full-length human …; assay: SPR; CC-220 5 uM
[3] = molecular target: T1, DDB1:CRBN complex, full-length human …; assay: SPR; pomalidomide
[4] = molecular target: T1, DDB1:CRBN complex, full-length human …; assay: SPR; CC-220
[5] = molecular target: T1, DDB1:CRBN complex, full-length human …; assay: SPR; CC-220; remark: listed apart in the source
[6] = molecular target: T1, DDB1:CRBN complex, full-length human …; assay: SPR; pomalidomide; remark: listed apart in the source

T1 sequence (Q96SW2 whole entry, chain 1 of 2, the tested form may be a part): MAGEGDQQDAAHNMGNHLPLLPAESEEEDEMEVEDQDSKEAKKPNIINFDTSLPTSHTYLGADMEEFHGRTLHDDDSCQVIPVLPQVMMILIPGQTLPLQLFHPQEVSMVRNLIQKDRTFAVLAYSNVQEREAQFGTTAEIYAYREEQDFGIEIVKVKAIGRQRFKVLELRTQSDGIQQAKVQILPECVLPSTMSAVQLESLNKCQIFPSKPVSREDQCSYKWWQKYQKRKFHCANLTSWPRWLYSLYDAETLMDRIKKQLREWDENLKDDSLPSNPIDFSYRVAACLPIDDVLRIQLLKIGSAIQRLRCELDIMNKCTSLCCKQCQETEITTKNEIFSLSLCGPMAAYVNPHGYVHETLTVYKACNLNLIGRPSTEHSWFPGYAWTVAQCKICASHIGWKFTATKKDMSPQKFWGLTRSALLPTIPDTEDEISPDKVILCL
T1 sequence (Q16531 whole entry, chain 2 of 2, the tested form may be a part): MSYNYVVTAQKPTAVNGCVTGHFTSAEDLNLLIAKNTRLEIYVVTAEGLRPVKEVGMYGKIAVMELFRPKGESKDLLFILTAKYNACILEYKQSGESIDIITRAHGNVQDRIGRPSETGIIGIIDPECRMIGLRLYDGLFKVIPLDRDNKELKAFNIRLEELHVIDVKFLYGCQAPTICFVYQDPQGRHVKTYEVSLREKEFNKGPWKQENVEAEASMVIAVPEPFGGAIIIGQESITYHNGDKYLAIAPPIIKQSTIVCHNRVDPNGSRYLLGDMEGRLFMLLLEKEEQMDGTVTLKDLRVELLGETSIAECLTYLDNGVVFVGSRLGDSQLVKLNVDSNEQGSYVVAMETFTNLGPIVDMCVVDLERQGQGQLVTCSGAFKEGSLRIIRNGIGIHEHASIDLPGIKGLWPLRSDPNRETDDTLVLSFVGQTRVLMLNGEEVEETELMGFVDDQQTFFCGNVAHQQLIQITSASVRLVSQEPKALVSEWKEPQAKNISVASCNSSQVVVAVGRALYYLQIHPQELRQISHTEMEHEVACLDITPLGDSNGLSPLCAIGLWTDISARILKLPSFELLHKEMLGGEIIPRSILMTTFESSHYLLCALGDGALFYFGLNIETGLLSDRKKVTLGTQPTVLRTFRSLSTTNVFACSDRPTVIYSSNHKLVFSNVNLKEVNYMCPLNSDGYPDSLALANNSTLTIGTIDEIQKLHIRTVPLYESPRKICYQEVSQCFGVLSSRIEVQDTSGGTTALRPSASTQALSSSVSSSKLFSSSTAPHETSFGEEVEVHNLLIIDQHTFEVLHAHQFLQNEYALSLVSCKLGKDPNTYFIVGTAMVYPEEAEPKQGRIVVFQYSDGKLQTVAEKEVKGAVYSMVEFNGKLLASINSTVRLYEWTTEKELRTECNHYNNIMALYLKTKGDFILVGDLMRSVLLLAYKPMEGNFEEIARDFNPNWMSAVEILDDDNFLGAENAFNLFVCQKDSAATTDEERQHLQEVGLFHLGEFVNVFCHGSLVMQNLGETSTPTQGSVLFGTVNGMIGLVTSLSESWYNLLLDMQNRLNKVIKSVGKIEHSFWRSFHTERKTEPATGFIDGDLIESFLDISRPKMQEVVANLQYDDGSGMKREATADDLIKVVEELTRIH

B1: Human SALL4 ZF2(405–432) (domain or fragment)
chain: not shown
Kd [1]: 67100 nM

B2: Human SALL4 ZF1-2(370–454) (domain or fragment)
chain: DVKPKDEAALYKHKCKYCSKVFGTDSSLQIHLRSHTGERPFVCSVCGHRFTTKGNLKVHFHRHPQVKANPQLFAEFQDKVAAGNG
koff [3]: 0.015 s⁻¹ | Kd [1]: 60 nM | koff [4]: 0.042 s⁻¹ | Kd [5]: 280 nM | Kd [6]: 60 nM | Kd [2]: 310 nM

B3: Human SALL4 ZF1-2(379–432) (domain or fragment)
chain: LYKHKCKYCSKVFGTDSSLQIHLRSHTGERPFVCSVCGHRFTTKGNLKVHFHRH
koff [3]: 0.26 s⁻¹ | koff [4]: 0.34 s⁻¹ | Kd [5]: 150000 nM | Kd [6]: 2100 nM

Continued, values first:

Kd [1]: 700 nM | Kd [2]: 2100 nM
Binder: TGERPFVCSVCGHRFTTKGNLKVHFHRHPQVKANPQLFAEFQDKVAAGNG (domain or fragment) [Human SALL4 ZF2(405–454)]

Kd [2]: 4000 nM
Binder: TGERPFVCSVCGHRFTTKGNLKVHFHRHPQVKA (domain or fragment) [Human SALL4 ZF2(405–437)]
